In paper PMC13105642:

Target: Antibody_82-M1
Experiment: SPR; Biacore 8K; antibody captured on a Protein G chip; gradient concentrations of LONP1 as analyte; 1x HBS-EP buffer; fitted to a 1:1 binding model

Chain of Antibody_82-M1 (heavy, as listed by the source, chain 1 of 2): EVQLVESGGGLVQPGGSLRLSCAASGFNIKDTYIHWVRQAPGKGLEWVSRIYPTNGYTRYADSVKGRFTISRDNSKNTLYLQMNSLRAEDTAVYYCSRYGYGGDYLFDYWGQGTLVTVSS
Chain of Antibody_82-M1 (light, as listed by the source, chain 2 of 2): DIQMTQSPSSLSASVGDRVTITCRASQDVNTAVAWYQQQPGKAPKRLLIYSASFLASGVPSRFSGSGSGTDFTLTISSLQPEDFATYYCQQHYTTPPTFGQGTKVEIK

B1: Lon Peptidase 1 (LONP1) (enzyme)
chain: FWEASSRGGGAFSGGEDASEGGAEEGAGGAGGSAGAGEGPVITALTPMTIPDVFPHLPLIAITRNPVFPRFIKIIEVKNKKLVELLRRKVRLAQPYVGVFLKRDDSNESDVVESLDEIYHTGTFAQIHEMQDLGDKLRMIVMGHRRVHISRQLEVEPEEPEAENKHKPRRKSKRGKKEAEDELSARHPAELAMEPTPELPAEVLMVEVENVVHEDFQVTEEVKALTAEIVKTIRDIIALNPLYRESVLQMMQAGQRVVDNPIYLSDMGAALTGAESHELQDVLEETNIPKRLYKALSLLKKEFELSKLQQRLGREVEEKIKQTHRKYLLQEQLKIIKKELGLEKDDKDAIEEKFRERLKELVVPKHVMDVVDEELSKLGLLDNHSSEFNVTRNYLDWLTSIPWGKYSNENLDLARAQAVLEEDHYGMEDVKKRILEFIAVSQLRGSTQGKILCFYGPPGVGKTSIARSIARALNREYFRFSVGGMTDVAEIKGHRRTYVGAMPGKIIQCLKKTKTENPLILIDEVDKIGRGYQGDPSSALLELLDPEQNANFLDHYLDVPVDLSKVLFICTANVTDTIPEPLRDRMEMINVSGYVAQEKLAIAERYLVPQARALCGLDESKAKLSSDVLTLLIKQYCRESGVRNLQKQVEKVLRKSAYKIVSGEAESVEVTPENLQDFVGKPVFTVERMYDVTPPGVVMGLAWTAMGGSTLFVETSLRRPQDKDAKGDKDGSLEVTGQLGEVMKESARIAYTFARAFLMQHAPANDYLVTSHIHLHVPEGATPKDGPSAGCTIVTALLSLAMGRPVRQNLAMTGEVSLTGKILPVGGIKEKTIAAKRAGVTCIVLPAENKKDFYDLAAFITEGLEVHFVEHYREIFDIAFPDEQAEALAVER
Kd: 0.829 nM
koff: 0.000151 s⁻¹
kon: 182000 M⁻¹ s⁻¹
